This is an account of results in patent publication US20090047356A1 (published 2009).

For data set [1], the target named is T1, coagulation factor VIIa (UniProt P08709 61-466, Gla (gamma-carboxyglutamate) domain mentioned; positions not given).
T1 construct: also called FVIIa
T1 sequence (looked up): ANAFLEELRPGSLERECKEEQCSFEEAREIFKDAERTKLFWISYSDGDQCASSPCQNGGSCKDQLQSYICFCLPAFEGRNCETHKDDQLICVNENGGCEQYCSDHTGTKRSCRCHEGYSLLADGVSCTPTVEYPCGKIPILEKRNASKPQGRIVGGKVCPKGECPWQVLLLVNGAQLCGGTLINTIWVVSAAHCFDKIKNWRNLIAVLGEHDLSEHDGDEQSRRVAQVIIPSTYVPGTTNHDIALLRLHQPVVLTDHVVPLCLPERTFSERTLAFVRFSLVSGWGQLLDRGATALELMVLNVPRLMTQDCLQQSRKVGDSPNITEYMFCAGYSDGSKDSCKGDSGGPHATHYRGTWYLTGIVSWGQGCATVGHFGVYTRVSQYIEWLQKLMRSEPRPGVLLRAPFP
Briefly: listed in Table 2 of binding constants for TF:VIIa complexes; method for this row not stated.

Data set [2] concerns the target coagulation factor X, P00742.
The target of data set [3] is T1, coagulation factor VIIa. The data set can be described thus: TF-dependent enhancement of factor VIIa enzymatic activity as readout for complex formation.
For data set [4], the target named is T1, coagulation factor VIIa. Briefly: apparent Kd; TF-dependent enhancement of factor VIIa enzymatic activity as readout for complex formation.
For another data set, the target named is T2, coagulation factor X (UniProt P00742 41-488, Gla (gamma-carboxyglutamate) domain mentioned; positions not given).
T2 construct: Substrate of the TF:VIIa complex
T2 sequence (P00742 41-488 limits assumed): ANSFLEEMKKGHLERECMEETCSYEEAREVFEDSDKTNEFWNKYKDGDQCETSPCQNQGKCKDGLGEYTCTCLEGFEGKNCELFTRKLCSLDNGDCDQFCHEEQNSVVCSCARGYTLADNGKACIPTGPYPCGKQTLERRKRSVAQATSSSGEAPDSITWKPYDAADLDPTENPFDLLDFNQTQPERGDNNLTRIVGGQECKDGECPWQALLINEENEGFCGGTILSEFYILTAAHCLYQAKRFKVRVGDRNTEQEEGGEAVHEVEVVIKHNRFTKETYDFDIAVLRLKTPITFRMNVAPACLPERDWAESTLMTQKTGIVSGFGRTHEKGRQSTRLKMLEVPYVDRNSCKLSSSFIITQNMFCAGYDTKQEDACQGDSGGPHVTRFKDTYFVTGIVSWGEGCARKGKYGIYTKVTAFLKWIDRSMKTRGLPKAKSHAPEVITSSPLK
The data set can be described thus: SPR (Biacore 3000), Nanodiscs immobilized on NTA chip via His tag of MSP1, factor X flowed over.

coagulation factor X, P00742, sequence (P00742 whole entry, looked up): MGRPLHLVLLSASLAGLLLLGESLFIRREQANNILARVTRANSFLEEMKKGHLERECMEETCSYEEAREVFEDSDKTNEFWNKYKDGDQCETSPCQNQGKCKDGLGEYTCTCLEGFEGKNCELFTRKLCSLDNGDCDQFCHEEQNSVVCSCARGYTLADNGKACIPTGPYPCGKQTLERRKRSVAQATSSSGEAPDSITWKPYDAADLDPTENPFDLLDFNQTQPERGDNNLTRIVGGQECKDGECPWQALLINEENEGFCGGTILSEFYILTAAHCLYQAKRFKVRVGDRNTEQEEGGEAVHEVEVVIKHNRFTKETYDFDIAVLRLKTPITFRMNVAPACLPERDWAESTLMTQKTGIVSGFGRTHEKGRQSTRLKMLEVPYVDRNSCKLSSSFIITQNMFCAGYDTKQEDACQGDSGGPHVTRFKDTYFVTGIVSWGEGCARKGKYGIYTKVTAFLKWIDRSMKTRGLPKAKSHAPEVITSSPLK

B1: soluble tissue factor (extracellular domain of TF) (receptor, UniProt P13726 33-251, looked up)
chain: SGTTNTVAAYNLTWKSTNFKTILEWEPKPVNQVYTVQISTKSGDWKSKCFYTTDTECDLTDEIVKDVKQTYLARVFSYPAGNVESTGSAGEPLYENSPEFTPYLETNLGQPTIQSFEQVGTKVNVTVEDERTLVRRNNTFLSLRDVFGKDLIYTLYYWKSSSSGKKTAKTNTNEFLIDVDKGENYCFSVQAVIPSRTVNRKSTDSPVECMGQEKGEFRE
notes: extracellular domain; also called sTF
As to B1, in the data set with coagulation factor VIIa [1], the Kd was ~3 nM.

B2: rTF:VIIa complex on PCPS vesicles (TF-liposomes, 20% PS, 80% PC) (protein)
chain 1: AEDQVDPRLIDGKSGTTNTVAAYNLTWKSTNFKTILEWEPKPVNQVYTVQISTKSGDWKSKCFYTTDTECDLTDEIVKDVKQTYLARVFSYPAGNVESTGSAGEPLYENSPEFTPYLETNLGQPTIQSFEQVGTKVNVTVEDERTLVRRNNTFLSLRDVFGKDLIYTLYYWKSSSSGKKTAKTNTNEFLIDVDKGENYCFSVQAVIPSRTVNRKSTDSPVECMGQEKGEFREIFYIIGAVVFVVIILVIILAISLHK
chain 2: T1 sequence (looked up)
For the molecule B2, in data set [2], the Km (factor X activation by TF:VIIa) was 0.0202 µM and the Km, app (factor X activation by rTF:VIIa) stood at 0.0202 µM.

B3: rTF in PCPS vesicles (20 mol % PS, 80 mol % PC; PL:rTF 8700:1) (receptor)
chain: B2 chain 1
notes: Recombinant truncated human tissue factor from E. coli (not glycosylated), reconstituted into PCPS liposomes by the Bio-Bead method; also called TF-liposomes; rTF in phospholipid vesicles
As for B3, the Kd in the data set with coagulation factor VIIa [3] and with coagulation factor VIIa [4] was 0.0264 nM in each case.

B4: TF:VIIa complex on TF-Nanodiscs 10% PS, 90% PC (protein)
chain 1: B2 chain 1
chain 2: T1 sequence (looked up)
chain 3: MGHHHHHHIEGRLKLLDNWDSVTSTFSKLREQLGPVTQEFWDNLEKETEGLRQEMSKDLEEVKAKVQPYLDDFQKKWQEEMELYRQKVEPLRAELQEGARQKLHELQEKLSPLGEEMRDRARAHVDALRTHLAPYSDELRQRLAARLEALKENGGARLAEYHAKATEHLSTLSEKAKPALEDLRQGLLPVLESFKVSFLSALEEYTKKLNTQ
Consider B4, for which, in data set [2], the Km (factor X activation by TF:VIIa) came out at 0.132 µM.

B5: rTF:VIIa complex on rTF-PCPS-nanoscale discs (TF-Nanodiscs 20% PS, 80% PC) (protein)
chain 1: B2 chain 1
chain 2: T1 sequence (looked up)
chain 3: B4 chain 3
Consider B5, for which, in data set [2], the Km (factor X activation by TF:VIIa) was found to be 0.0686 µM and the Km, app (factor X activation by rTF:VIIa) was found to be 0.0686 µM.

B6: TF:VIIa complex on TF-Nanodiscs 30% PS, 70% PC (protein)
chain 1: B2 chain 1
chain 2: T1 sequence (looked up)
chain 3: B4 chain 3
Consider B6, for which the Km (factor X activation by TF:VIIa) in data set [2] was found to be 0.0452 µM.

B7: Nanodiscs containing 100% POPC (no TF) (other)
chain: B4 chain 3
notes: Control discs immobilized on an NTA Biacore chip; Their only protein is MSP1; also called POPC Nanodiscs
B7: the binding result with coagulation factor X is given as “no binding (tested: 1 µM)”.
